Biological target: T1, IRAK (UniProt P51617 1-712, limits assumed)
T1 construct: Overexpressed in HEK293 cells and detected by western blotting with anti-IRAK; No tag is stated; also called IL-1 receptor associated Kinase; IRAK1
Assay: co-immunoprecipitation from transfected HEK293 cells: anti-HA IP, anti-IRAK western blot
Description: HEK 293 cells were transfected with a 5 x NF-KB reporter gene plasmid and co-transfected with plasmids encoding MAL-1 of SEQ ID NO:2 or MyD88 and increasing concentrations of IRAK. Luciferase reporter gene activity was measured. HEK293 cells were transfected with HA-MAL-1 and IRAK and the resulting overexpressed proteins were immunoprecipitated using an anti-HA antibody to isolate MAL-1 complexes and interactions were detected by western blotting to detect anti-IRAK. IRAK could not be detected in the anti-HA-MAL immunoprecipitates. HEK293 cells were transfected with AU-1-MyD88 and IRAK and the resulting overexpressed proteins were immunoprecipitated using an anti-AU1 antibody to isolate MyD88 complexes and interactions were detected by western blotting for anti-IRAK. IRAK was detected in the anti-Aul-MyD88 immunoprecipitates.

T1 sequence (P51617 whole entry): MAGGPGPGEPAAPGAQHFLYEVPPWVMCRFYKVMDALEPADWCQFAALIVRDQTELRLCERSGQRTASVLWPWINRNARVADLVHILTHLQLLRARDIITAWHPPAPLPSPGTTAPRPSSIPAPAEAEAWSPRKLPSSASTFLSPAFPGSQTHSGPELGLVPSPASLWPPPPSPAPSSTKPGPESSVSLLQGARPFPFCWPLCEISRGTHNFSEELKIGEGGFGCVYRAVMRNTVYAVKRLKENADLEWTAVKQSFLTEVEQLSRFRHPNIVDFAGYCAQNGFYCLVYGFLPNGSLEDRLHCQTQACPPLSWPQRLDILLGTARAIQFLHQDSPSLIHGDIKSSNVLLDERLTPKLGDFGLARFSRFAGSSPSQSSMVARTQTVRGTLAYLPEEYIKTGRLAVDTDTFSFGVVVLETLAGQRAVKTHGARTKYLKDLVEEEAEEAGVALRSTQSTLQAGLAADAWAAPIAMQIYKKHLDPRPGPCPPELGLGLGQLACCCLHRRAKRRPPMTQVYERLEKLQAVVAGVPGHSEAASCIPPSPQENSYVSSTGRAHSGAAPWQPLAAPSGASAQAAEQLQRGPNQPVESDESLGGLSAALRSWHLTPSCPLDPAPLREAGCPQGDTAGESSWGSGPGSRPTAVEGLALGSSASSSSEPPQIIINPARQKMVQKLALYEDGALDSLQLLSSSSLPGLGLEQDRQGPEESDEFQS

binding result: no binding
B1: full-length labelled MAL-1 (HA-MAL-1) (other, not shown: small tags and cut ends)
chain: MASSTSLPAPGSRPKKPLGKMADWFRQTLLKKPKKRPNSPESTSSDASQPTSQDNPLPPSLSSVTSPSLPPTHASDSGSSRWSKDYDVCVCHSEEDLVAAQDLVSYLEGSTASLRCFLQLRDATPGGAIVSELCQALSSSHCRVLLITPGFLQDPWCKYQMLQALTEAPGAEGCTIPLLSGLSRAAYPPELRFMYYVDGRGPDGGFRQVKEAVMRCKLLQEGEGERDSATVSDLL
notes: Overexpressed in HEK293 cells; also called tagged MAL-1

— US20020164640A1 (IMMUNEX, published 2002)
